Measurements reported in the supplement of paper PMC12636428.

Tested on: Saccharomyces cerevisiae
Assay: transcriptional activation domain activity (GFP:mCherry ratio, weighted mean of sorted bins, harmonized to initial dataset scale) (arbitrary fluorescence ratio units); higher = stronger transcriptional activation
Conditions: beta-estradiol 1 µM; induction time 4 h
In short: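 Sorting into 8 bins by GFP:mCherry ratio followed a 4-hour hold at 30 °C after cultures were diluted 1:5 into SC with 1 uM beta-estradiol. The yeast diploids carried a GFP reporter and had barcoded protein tiles, fused to an estradiol-inducible synthetic transcription factor, integrated at URA3. Barcodes were then sequenced, and tiles with under 50 reads were removed. Activation activity is the read-weighted mean of bin median fluorescence, averaged across barcodes and linearly mapped onto the initial dataset scale.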

Row | Sequence | transcriptional activation domain activity
1 | LWQYMEFRILVYIFFGLSFIPLSIFLLFCTCLSSFIFFVAAGIWLFVGTIAFF | 54200
2 | LWQYMEFRIMIYLFLALCFIPISIFVIFCSCLSSILFMISAGIWIFFGTIAFL | 51200
3 | LWSHSILILACLIPYLVLRCSTYYCYQAISYIDSNDLAWSNVSIRFDVAMLVV | 69200
4 | LWTCLLITLILPSPLFSSLFFPSPLFSFLLCLFFTFYLSFPSLFLSCPPPFAG | 51800
5 | LWYIGSFVTNGLVNVVGVWKICKLWSIWVRVAFTYMFMCFILFRALALHRIFI | 59200
6 | LWYRFQVVMIRRYHFHFHLLGYRMTYLRFIQFLNIWYFFIAIACLLFIIVIGA | 46300
7 | LYAWLSFFWVLVYVYFFSITVYLVVKGSRSILDLSHGSPSPLLTGSLFACLVW | 58700
8 | LYECLKYMLFTFAGSTHTNYMAYLLETIINLELESSPGLKEALLLCLLINLTG | 48700
9 | LYEHLDEDHRLLWSYLSRLGSYVFQPEIPDLTLYLSELKTVIRCFLNQLIKIS | 56700
10 | LYFLLLLSPLCIGLVSVLCCHIGFIFLFLFFLLQSYQVSYLLLFMYIRFFLCM | 42300
11 | LYFLRPEVLPDRYAFTIPAISFLGTNDYPVLVPDLFLLLTSSFWSPTLLWFFT | 55600
12 | LYFMPVRWYTYHKIGFHYFLADLCYFVNFLMVLCIWFFPNSKRLFISTFCLAF | 72000
13 | LYFTCNERVGACPPSFEYIYDTFFASVTSQEFWRSLFDLEAFYMYLGWYAFCV | 65600
14 | LYHALRLCLKFFVVSLVADPEFQRELDYFMKNKPWFIRWPAVFSLNMVWNYTK | 42600
15 | LYILLVFPILLLMMLHSLVTFLYVRAIDPLYGSVPINLHLDKIVWVATFAGAF | 63200
16 | LYIVRLRFVHHFRINTAFVEACQLSIPPFVSVSLVSLAIAVFLNCVGHHFAAF | 39400
17 | LYKSYKHAFHDWIYRLYYYLYHCLVELGLSSAAVDIFRACLPSVKMGNIALTY | 63000
18 | LYLCLVILFKRCIIGGFKAGPRRHDQVTLMRYWFMEKLLPPGENLQGVASILG | 16200
19 | LYLLIFFPVLLWRYLCIGLDSVLCCHIGFHFPYFMCYFFAIMSVSRSFFIHVY | 67200
20 | LYLLIFFPVLLWRYLCIGLDSVLCCHIGFHFPYFMCYFFAIMSVSRSFFYSCI | 50700
21 | LYLLVEILLLATYAVNYNVQYIVLETVTPIAVSSCLVPHTRFLFRLILFIQGL | 63200

Row | Sequence | transcriptional activation domain activity
22 | LYLRLLVGYLFMILVLLCSHNMMIFLLRSLHHLLTFLTCPLHFFLLLLLLMIT | 39000
23 | LYLSLLKRKTTIWFFVYVVLQNYFLSTLYGRNWFFLFSSQHAPTWSIWLLAFI | 57300
24 | LYLSVLYIIVFTFLPGYTFIFTLTYGYGFAARGLSFLALGVGFLSSLILVIPV | 46500
25 | LYMLKIVNWAVLYASLILATLLWCTIFIIYRILKVGGVTAGMRAYHRVIELLV | 83500
26 | LYNTLFLQLSAIAREFNFPSAAGLCCYMNFSDNGSIFAPRITDDAWIILWRRY | 71800
27 | LYPQDLVSSPAMSHLTANNDDFDDLLSVASMNSNYLLPVNSHGYKHISNLDEL | 69100
28 | LYSIFSLLSIRFFILYSVYVFFFFIGALGGGMLYGLFFFFFFDEVIWYSFFLS | 35400
29 | LYSRYCLLLICIFFVTLQFTTVRFTVRSFYFNTLSFFYLSFWCPQIYRNIMRN | 53600
30 | LYSVCSILLLVVRLFKQLPRQYCSWRVVYTQKLWISITICFTLMRFSFSRDHT | 51100
31 | LYVIIFPILYFSLLLFYFFSSCGGVGWWAVGWHGVLCFFVLLGWVGLGGCCLC | 35900
32 | LYVSLHAVVGNVAEFYFVRYGLALVCALCQTIMFQVTSVTLNGRIGLFFLIAT | 45400
33 | LYYMECSFFRLIIRWIPHWLFLSVKADHVILPLPNHPVGAIIGPNLFCIFLHI | 50900
34 | LYYTAPFNLQPYISYVGCGLVCLVLFFNGFWIFFPGQFSVANLFTSYFAPVFF | 65000
35 | LYYTVIRLFHIYPCRDPLAANSTTFNKSLYLVWSFLCMLVYLAHISYLTLLPR | 54100
36 | MAAAPAAKACAQCNKAETVSGGSDGEEGSSNLHPCNMCKSVLYCSRDCKKAHG | 8830
37 | MAAGFFFFFFLLSFPLFLSFFFCFPFFFSLPSGISFCLPFAPGVVSSFPFPTR | 53800
38 | MAAIDHDKVAKFVGGNSLDKATPGDVTDFVRKNGGHTVITKVLIANNGIAAVK | 45000
39 | MAALGGGKYFVCMLTQIVVNFCFLLSVPFSSPPLLLPCYLIIRYSFSFFLFCL | 64700
40 | MAALLWVLAVCLWIHPLSILAFTFHSVEGFKLVREILLDVLPTFDPHSYQIDG | 53200
41 | MAAPPFLWTLFFFLFSILLLLSHTYFFLLLLACFFRFWFFYCSFYFSFDFLSS | 37900
42 | MAASDGPSPKKRKFARAVNTCAPCARRKVKCDRESHAPCSNCRKRRETALCEP | 9660

Row | Sequence | transcriptional activation domain activity
43 | MACCNQTWLYIPTNYYFAFLMFGISIVHVLFIQNQGFSRVIFFLFFAWDLFVS | 84600
44 | MACLFPCMLIFIFLLFISSFFLCFFHSLVSHLPHCVLVLFFISFLLTILTFFF | 50200
45 | MACLVSGIGWCLLYFTCMYLLLIYYILSLFYPPLASCNSFSFFFLSFFFFAGR | 59100
46 | MADACGSNPGGKSVKDVRAEQESKRARGALSCAECRRLKLRCDKRVPCSSCQR | 25400
47 | MADAITESTAKLQLDEETGEMVSKGELKKRLAKRAKKAAQAKAKAEAPAPLAT | 36300
48 | MADALAENTAKLQLDEETGEMVSKGELKKRMAKRAKKAAAAKAKAEVPATTSA | 20400
49 | MADATATGSTPPQAPLPEPKRHAACDECRLRKLKCSGTRPACERCAREHIACV | 40100
50 | MADAVADAAANLKLEEGAAENAPKLQLDEETGEWVSKGELKKRLAKRAKKASK | 14100
51 | MADAVAEGTAKLQLDEETGEMVSKGELKKRLQKRAKKAAQAKAKADAPAPSAA | < 6570
52 | MADEEGASPRELILEACRRNNTSLLEETLADLASSASKAKQDPTGYVAKTLNE | 42600
53 | MADEHAAHRRKRARLACLACNARRVKCNVAECRPCHNCAAANVPCETRESRRG | 38300
54 | MADENNTAAAVGERNVPRQKQKRVFQTRARTGCQRCRARRRKCDEAKPRCARC | 35200
55 | MADFVSIWLVVVVDYHFYIYIVFAREQLFRHFCLVSSALAVGLSLFWLMLCFG | 68200
56 | MADPQEDNTAPGTKRRRLRGSCDKCKQRKIRCDSSEMPGNRCSNCIAFSSECT | 31600
57 | MADQPQGRKPNNRRPRHRGRGGGAGGGGNGGGNGGGEDGGNEGGRGGRRGGRG | 33900
58 | MADRGTGAGGEGRGRGGFGRGGRGRGGPRGRGGRGGRGGRKDEEKEWVPVTKL | 24800
59 | MADTSTDGGPERTPVAAPISIKACDQCRARKVRCDKTSPCANCRKHNVKCTTS | 19000
60 | MADTTDPPAPRKRGRPPKNKEGGATAKPVTLGPDGLPRKRGRPRKNPVVEVAT | 20300
61 | MADVSSARINIDRAKQGRGLGRVATAGCSRDRILLIRSSHSVWRAACHLWAVP | 60500
